Assays:
Glycopeptide = assay: surface plasmon resonance, Table S3 of Brooks et al. (2010) PNAS drawn on the sheet; per legend paragraph 58 measured for the 237 Fab [C]
[1] = target: Tn-glycosylated murine podoplanin on COSMC-mutant cells (murine) (UniProt Q62011); assay: flow cytometry on Ag104A, Jurkat and SKOV3 variants; binding ratio = MFI primary+secondary / MFI secondary alone
Sequence of Tn-glycosylated murine podoplanin on COSMC-mutant cells (murine) (Q62011 23-172, change not shown): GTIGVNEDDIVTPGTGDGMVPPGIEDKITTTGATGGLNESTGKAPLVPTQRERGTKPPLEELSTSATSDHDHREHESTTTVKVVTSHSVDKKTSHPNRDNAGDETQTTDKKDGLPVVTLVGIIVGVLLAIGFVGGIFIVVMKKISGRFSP

Binder	koff (Glycopeptide) [s⁻¹]	kon (Glycopeptide) [M⁻¹ s⁻¹]	fold of binding ratio over cells that were PDPN- and/or Cosmc+ [1] [fold]
237mAb Fab (Fab, V domains shown) VH: QVQLQQSGGGLVQPGGSMKIFCAASGFTFSDAWMDWVRQSPEKGLEWVAEIRNKANNHETYYAESVKGRFTITRDDSKSRMSLQMNSLRAEDTGIYYCSGGKVRNAYWGQGTTVTVSS VL: DIQLTQSPLSLPVSLGDQASISCRSSQSLVHSNGNTYLHWYLQKPGQSPKLLIYKVSNRFSGVPDRFSGSGSGTDFTLKISSVEAEDLGVYFCSQSTHVPTFGGGTKLEIK	0.013	94000	
237 monoclonal antibody (antibody, V domains shown) VH: QVQLQQSGGGLVQPGGSMKIFCAASGFTFSDAWMDWVRQSPEKGLEWVAEIRNKANNHETYYAESVKGRFTITRDDSKSRMSLQMNSLRAEDTGIYYCSGGKVRNAYWGQGTTVTVSS VL: DIQLTQSPLSLPVSLGDQASISCRSSQSLVHSNGNTYLHWYLQKPGQSPKLLIYKVSNRFSGVPDRFSGSGSGTDFTLKISSVEAEDLGVYFCSQSTHVPTFGGGTKLEIK			> 100
